Data set [1] deals with T1, (Pro-Pro-Gly)10 substrate (Gallus gallus, UniProt Q6JHU8).
T1 construct: Purified P3H1 from 15-day-old chick embryos was tested for its enzymatic activity using a labeled procollagen substrate; from tissue; host or cells: 15 day-old chick embryos: rER-enriched extract, gelatin-Sepharose, then 1C10 antibody column eluted at pH 2.5
T1 sequence (Q6JHU8 15-725): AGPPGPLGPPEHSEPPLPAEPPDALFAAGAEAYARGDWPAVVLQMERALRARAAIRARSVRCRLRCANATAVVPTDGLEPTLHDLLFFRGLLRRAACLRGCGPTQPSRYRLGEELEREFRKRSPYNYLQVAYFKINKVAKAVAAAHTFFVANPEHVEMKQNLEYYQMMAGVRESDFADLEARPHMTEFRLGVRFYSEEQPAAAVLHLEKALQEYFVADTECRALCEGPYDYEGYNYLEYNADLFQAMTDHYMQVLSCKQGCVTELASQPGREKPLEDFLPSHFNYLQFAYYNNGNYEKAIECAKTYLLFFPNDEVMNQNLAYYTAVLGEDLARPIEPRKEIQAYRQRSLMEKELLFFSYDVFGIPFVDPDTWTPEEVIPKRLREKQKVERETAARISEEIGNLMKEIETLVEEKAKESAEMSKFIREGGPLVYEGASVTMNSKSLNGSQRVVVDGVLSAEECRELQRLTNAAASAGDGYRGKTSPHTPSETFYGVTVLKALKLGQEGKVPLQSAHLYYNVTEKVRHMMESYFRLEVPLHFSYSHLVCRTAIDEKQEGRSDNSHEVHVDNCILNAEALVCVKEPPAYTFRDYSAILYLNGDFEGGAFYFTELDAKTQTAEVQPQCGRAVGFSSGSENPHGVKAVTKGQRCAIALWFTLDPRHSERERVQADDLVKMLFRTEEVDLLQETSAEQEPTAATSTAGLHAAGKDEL
The data set can be described thus: Prolyl 4-hydroxylase activity assay, hydroxylation-coupled decarboxylation of 2-oxo[1-14C]glutarate. The class given is biochemical. As to conditions: purified P3H1 enzyme. The method, then: The prolyl 4-hydroxylase activity was assayed by a method based on the hydroxylation-coupled decarboxylation of 2-oxo[1-^14C]glutarate (Kivirikko et al., 1982). The reaction was performed in a final volume of 1.0 ml, which contained 0.1 mg (Pro-Pro-Gly)10.9H^2O as substrate, 2 mM ascorbic acid, 0.05 mM FeSO^4, 0.1 mM dithiothreitol, 2 mg/ml bovine serum albumin, 0.1 mg/ml catalase, 50 mM Tris-HCl, pH 7.8, and 0.1 mM 2-oxo[1-^14C]glutarate (100,000 dpm). The reaction was stopped by the addition of 1 ml of 1 M KH2PO4, pH 5.0.

In data set [2] the target is T2, [2,3-3H]-L-proline-labeled procollagen substrate (Gallus gallus, UniProt Q6JHU8).
T2 construct: Purified P3H1 from 15-day-old chick embryos was tested for its enzymatic activity using a labeled procollagen substrate; from tissue; host or cells: 15 day-old chick embryos: rER-enriched extract, gelatin-Sepharose, then 1C10 antibody column eluted at pH 2.5
T2 sequence (Q6JHU8 15-725): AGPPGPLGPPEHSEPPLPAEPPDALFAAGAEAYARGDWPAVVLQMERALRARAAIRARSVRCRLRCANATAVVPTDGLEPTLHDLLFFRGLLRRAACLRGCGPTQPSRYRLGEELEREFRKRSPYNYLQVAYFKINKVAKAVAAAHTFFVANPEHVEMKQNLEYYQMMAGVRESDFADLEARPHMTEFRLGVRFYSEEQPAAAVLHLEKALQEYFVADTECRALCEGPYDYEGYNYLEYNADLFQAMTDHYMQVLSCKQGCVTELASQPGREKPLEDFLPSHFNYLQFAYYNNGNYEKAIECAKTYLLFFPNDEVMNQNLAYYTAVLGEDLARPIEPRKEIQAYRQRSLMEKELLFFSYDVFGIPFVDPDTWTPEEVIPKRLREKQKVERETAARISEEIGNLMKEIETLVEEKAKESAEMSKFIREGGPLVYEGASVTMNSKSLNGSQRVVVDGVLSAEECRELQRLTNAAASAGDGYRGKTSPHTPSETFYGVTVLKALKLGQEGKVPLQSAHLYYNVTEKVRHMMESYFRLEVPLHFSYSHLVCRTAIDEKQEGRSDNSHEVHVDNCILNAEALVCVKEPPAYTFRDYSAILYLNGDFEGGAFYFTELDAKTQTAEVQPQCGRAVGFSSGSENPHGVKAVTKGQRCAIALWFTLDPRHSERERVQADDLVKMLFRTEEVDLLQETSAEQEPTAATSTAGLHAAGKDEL
The data set can be described thus: Prolyl 3-hydroxylase activity assay, release of tritiated water (THO) from labeled procollagen substrate. The class given is biochemical, chicken. The conditions noted are these: same Km expressed per ml reaction volume. The method, then:
Prolyl 3-hydroxylase activity was measured based on the amount of tritiated water (THO) formed from a labeled procollagen substrate (Kivirikko et al. Matrix Biol, 16, 357-368 (1998); Risteli et al. Anal Biochem, 84, 423-431 (1978)) with the following modifications. [2,3-^3H]-L-Proline, 42 Ci/mmol, was purchased from Sigma.[2,3-^3H]-proline-labeled nonhydroxylated procollagen was prepared from the isolated cells of the leg tendons from 12 dozen 15 day-old chicken embryos (Berg et al., Biochemistry, 12, 3395-3401 (1973); Dehm et al. Biochim Biophys Acta, 264, 375-382 (1972); Kivirikko et al., Methods Enzymol, 82 Pt A, 245-304 (1982)). […]
The prolyl 3-hydroxylase reactions were performed as described previously (Kivirikko et al., 1982; Risteli et al., 1978; Tryggvason et al., 1976) but with the following modifications: the enzyme reaction was carried out for 60 minutes at 24° C. in a final volume of 2.0 mls containing 1×10^6 dpm [2,3-^3H]-L-proline-labeled substrate, 0.08 mM FeSO^4, 2 mM ascorbic acid, 0.5 mM 2-oxoglutarate, 0.2 mg/ml catalase, 2 mg/ml bovine serum albumin, 0.1 mM dithiothreitol, and 0.05 M Tris-HCl, pH 7.8. […] A 1.8 ml aliquot of the tritiated water was mixed with 10 mls Ecolume liquid scintillation cocktail (ICN) and counted in a Beckman LS5000TD liquid scintillation counter. […]

B1: P3H1: prolyl 3-hydroxylase 1 purified from 15-day-old chick embryos, chicken homologue of leprecan (protein)
chain: AGPPGPLGPPEHSEPPLPAEPPDALFAAGAEAYARGDWPAVVLQMERALRARAAIRARSVRCRLRCANATAVVPTDGLEPTLHDLLFFRGLLRRAACLRGCGPTQPSRYRLGEELEREFRKRSPYNYLQVAYFKINKVAKAVAAAHTFFVANPEHVEMKQNLEYYQMMAGVRESDFADLEARPHMTEFRLGVRFYSEEQPAAAVLHLEKALQEYFVADTECRALCEGPYDYEGYNYLEYNADLFQAMTDHYMQVLSCKQGCVTELASQPGREKPLEDFLPSHFNYLQFAYYNNGNYEKAIECAKTYLLFFPNDEVMNQNLAYYTAVLGEDLARPIEPRKEIQAYRQRSLMEKELLFFSYDVFGIPFVDPDTWTPEEVIPKRLREKQKVERETAARISEEIGNLMKEIETLVEEKAKESAEMSKFIREGGPLVYEGASVTMNSKSLNGSQRVVVDGVLSAEECRELQRLTNAAASAGDGYRGKTSPHTPSETFYGVTVLKALKLGQEGKVPLQSAHLYYNVTEKVRHMMESYFRLEVPLHFSYSHLVCRTAIDEKQEGRSDNSHEVHVDNCILNAEALVCVKEPPAYTFRDYSAILYLNGDFEGGAFYFTELDAKTQTAEVQPQCGRAVGFSSGSENPHGVKAVTKGQRCAIALWFTLDPRHSERERVQADDLVKMLFRTEEVDLLQETSAEQEPTAATSTAGLHAAGKDEL
For the molecule B1, the “prolyl 4-hydroxylase activity” value in data set [1] was “did not have any prolyl 4-hydroxylase activity”. The Km in data set [2] is 89.5 μl of substrate per ml.

(Values after patent US20050277167A1, “Prolyl 3-hydroxylases” (priority 2004, published 2005).)
